Measured values reported in patent US20200270704A1 (University of Texas, published 2020).

Biological target: T1, NY-ESO-1 (human, UniProt P78358 1-180, limits assumed)
T1 construct: Tumor antigen; coated on ELISA plates (ThermoFisher or RayBiotech) and amine-coupled to a CM5 chip for SPR (RayBiotech); also called NY-ESO-1/CTAG1B
Experiment: SPR, NY-ESO-1 immobilised on CM5, antibody as analyte, bivalent analyte model
Method: Binding experiments were performed in HBS-EP buffer (10 mM HEPES pH 7.4, 150 mM NaCl, 3.4 mM EDTA, and 0.005% P20 surfactant). Serially diluted antibodies were injected at a flow rate of 30 μL/min for 60 s with a dissociation time of 5 min. The chip was regenerated after each run by sequential injection of 10 mM glycine, pH 3, and 500 mM arginine, pH 8 for 1 min each. For each run, a bovine serum albumin (BSA)-coupled surface was used to subtract non-specific receptor binding.

T1 sequence (P78358 whole entry): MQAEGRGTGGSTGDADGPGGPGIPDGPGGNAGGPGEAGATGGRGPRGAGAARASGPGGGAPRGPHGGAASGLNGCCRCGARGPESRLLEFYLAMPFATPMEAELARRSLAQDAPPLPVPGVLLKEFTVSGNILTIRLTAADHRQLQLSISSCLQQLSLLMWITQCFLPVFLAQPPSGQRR

B1: BC2-3G1 (antibody, V domains shown)
VH: QVQLQQSGPGLVKPSQTLSLTCAISGDSVSSNSAAWNWIRQSPSRGLEWLGRTYYRSKWYNDYAVSVKSRITINPDTSKNQFSLQLNSVTPEDTAVYYCARDLGIAAAGDFDYWGQGTLVTVSS
VL: EIVLTQSPATLSLSPGERATLSCRASQGVSSYLAWYQQKPGQAPRLLIYDASNRATGIPARFSGSGSGTDFTLTISSLEPEDFAVYYCHQGSNWPTFGGGTKVEI
notes: also called BC2-3G lineage member 1; BC2-3G sub-lineage 1
B1: binds.
